Values quoted from earlier work in article PMC8760628.
pKd: −log10 of the molar value.

Molecular target: IL-18 mature (Homo sapiens) (UniProt Q14116)
Sequence (Q14116 37-193): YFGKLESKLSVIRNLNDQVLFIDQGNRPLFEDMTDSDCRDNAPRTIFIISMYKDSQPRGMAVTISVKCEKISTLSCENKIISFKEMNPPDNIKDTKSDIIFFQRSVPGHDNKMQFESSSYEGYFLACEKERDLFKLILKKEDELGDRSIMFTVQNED

Sequence of IL-18BP (O95998 31-194): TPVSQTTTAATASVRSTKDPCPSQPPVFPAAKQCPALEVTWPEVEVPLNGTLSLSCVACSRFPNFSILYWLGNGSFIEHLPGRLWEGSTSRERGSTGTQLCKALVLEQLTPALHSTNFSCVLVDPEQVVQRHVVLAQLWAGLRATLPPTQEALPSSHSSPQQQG

Question: With IL-18BP (from UniProt O95998) as the substance, how does the pKd read?
Answer: The pKd was 9.30.
